The source of these data is the supplement of paper PMC9732359.

± gives the uncertainty stated by the source.

This data set in a line: protein stability index of a GFP-peptide fusion (yeast GPS) (PSI 1-4); higher = more stable; sorted into four equal gates, so the index is relative within each strain. The method in brief: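 Plasmids isolated from each sorting gate were PCR-amplified and Illumina-sequenced, and barcodes assigned the reads to strains. The gates, four of equal size, were set by GFP/Cherry fluorescence ratio on mid-log cultures in leucine-free medium. These cultures were yeast carrying a pooled library of tiled 17-residue yeast protein peptides fused downstream of GFP on a plasmid that also expresses Cherry. The protein stability index is the sum of every gate's read frequency times its gate number.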

Consider FAKFIHHIHHFEKKELQ [IRR1], for which the protein stability index (doa10∆) amounted to 1.72 ± 0.048, the protein stability index (pdr5∆) worked out at 2.74 ± 0.064, the protein stability index (san1∆) came out at 2.18 ± 0.12 and the protein stability index (ubr1∆) was 2.13 ± 0.056.

Consider FALPAGSPKSATSKTSE [CDC53], for which the protein stability index runs as follows: (doa10∆) 2.9 ± 0.17; (pdr5∆) 2.92 ± 0.13.

Regarding FAVALKNEPDYSKAKYP [CDC53], the protein stability index was determined as 2.88 ± 0.078 (doa10∆), 2.46 ± 0.081 (pdr5∆), 2.37 ± 0.098 (san1∆) and 2.34 ± 0.092 (ubr1∆).

Consider FDDRGDVKVIMATNKIE [RPT2], for which the protein stability index worked out at 3.12 ± 0.12 (doa10∆), 3.18 ± 0.15 (pdr5∆), 3.11 ± 0.083 (san1∆) and 3.27 ± 0.12 (ubr1∆).

Turning to FDDSSRIVNHKTKLWGF [LIN1], the protein stability index by setting is: (doa10∆) 3.09 ± 0.071; (pdr5∆) 2.98 ± 0.08; (san1∆) 3.1 ± 0.069; (ubr1∆) 2.94 ± 0.055.

Take FDERIKFANQLHDEYLV [RPN3]: the protein stability index runs as follows: (doa10∆) 1.65 ± 0.092; (pdr5∆) 2.02 ± 0.12; (san1∆) 1.45 ± 0.14; (ubr1∆) 1.36 ± 0.076.

On to FDKIIKIREDHINKIPS [SRB8], for which the protein stability index came to 2.67 ± 0.12 (doa10∆), 2.95 ± 0.066 (pdr5∆), 2.96 ± 0.06 (san1∆) and 2.81 ± 0.062 (ubr1∆).

As for FDMTNHYNDSQQLRTWK [SRB8], the protein stability index reads like this: (doa10∆) 2.99 ± 0.079; (pdr5∆) 3.01 ± 0.084; (san1∆) 3 ± 0.078; (ubr1∆) 2.9 ± 0.061.

As to FDQAGKKVSRRNARAAR [RPL13B], the protein stability index is 3.08 ± 0.091 (doa10∆), 3.01 ± 0.14 (pdr5∆), 2.67 ± 0.28 (san1∆) and 3.29 ± 0.094 (ubr1∆).

Turning to FDRLNGNDTISKFYNMK [SSN2], the protein stability index is, setting by setting: (doa10∆) 3.17 ± 0.1; (pdr5∆) 3.06 ± 0.082; (san1∆) 3.19 ± 0.053; (ubr1∆) 3.08 ± 0.059.

On to FDSTAFNATVDETKGFD [MED2], for which the protein stability index by setting is: (doa10∆) 3.25 ± 0.06; (pdr5∆) 3.28 ± 0.063; (san1∆) 3.15 ± 0.063; (ubr1∆) 3.21 ± 0.046.

Regarding FDTSIKLDIISDPESER [RPN14], the protein stability index by setting is: (doa10∆) 2.7 ± 0.061; (pdr5∆) 2.94 ± 0.082; (san1∆) 2.59 ± 0.071; (ubr1∆) 2.9 ± 0.068.

As for FDVMIDEESLVKYMPEQ [RPO21], the protein stability index came to 2.3 ± 0.15 (doa10∆), 2.04 ± 0.16 (pdr5∆), 1.86 ± 0.26 (san1∆) and 2.13 ± 0.058 (ubr1∆).

As to FEDSMQFKKLTHAQRTG [PRP8], the protein stability index reads like this: (doa10∆) 2.81 ± 0.086; (pdr5∆) 3.11 ± 0.083; (san1∆) 3.07 ± 0.087; (ubr1∆) 2.99 ± 0.085.

FEHGRTPAEMSRPATTT [FAS2] gave a protein stability index (doa10∆) of 2.72 ± 0.064, a protein stability index (pdr5∆) of 3.13 ± 0.081, a protein stability index (san1∆) of 2.41 ± 0.09 and a protein stability index (ubr1∆) of 2.79 ± 0.1.

In turn, FEPASRLQGIKLLDNIQ [COR1] had a protein stability index (doa10∆) of 2.87 ± 0.064, a protein stability index (pdr5∆) of 2.98 ± 0.063, a protein stability index (san1∆) of 2.64 ± 0.06 and a protein stability index (ubr1∆) of 2.54 ± 0.046.

With FEQCCKEKKELQMRLKE [YIL149C/MLP2], for the setting “pdr5∆”, the protein stability index turned out to be 3.11 ± 0.29.

FFAYFIGWCKEDPKRRA [YJL039C/NUP192]: the protein stability index by setting is: (doa10∆) 2.15 ± 0.15; (pdr5∆) 2.03 ± 0.078; (san1∆) 2.61 ± 0.057; (ubr1∆) 3.21 ± 0.066.

On to FFMSERSSRLHIVYSLL [YML103C/NUP188], for which the protein stability index was found to be 1.91 ± 0.06 (doa10∆), 2.33 ± 0.079 (pdr5∆), 1.55 ± 0.11 (san1∆) and 2.08 ± 0.053 (ubr1∆).

For FFPYYVHTIIAGLDEDG [PRE7], the protein stability index (doa10∆) stood at 3.65 ± 0.15, the protein stability index (pdr5∆) stood at 3.31 ± 0.12, the protein stability index (san1∆) worked out at 3.35 ± 0.092 and the protein stability index (ubr1∆) came to 3.26 ± 0.095.

For the sequence FGAPNNPNSTAITADLG [YGL172W/NUP49], the protein stability index runs as follows: (doa10∆) 3.04 ± 0.094; (pdr5∆) 3 ± 0.078; (san1∆) 3.03 ± 0.058; (ubr1∆) 2.84 ± 0.087.

The sequence FGEWAGMTKSNIYNFSP [BRR2] displayed a protein stability index (doa10∆) of 2.94 ± 0.083, a protein stability index (pdr5∆) of 3.05 ± 0.082, a protein stability index (san1∆) of 2.89 ± 0.055 and a protein stability index (ubr1∆) of 2.98 ± 0.052.

On to FGGSQPNSGTATTGGFG [YGR119C/NUP57], for which the protein stability index (doa10∆) came to 2.98 ± 0.2, the protein stability index (pdr5∆) was 3.05 ± 0.12, the protein stability index (san1∆) stood at 3.15 ± 0.18 and the protein stability index (ubr1∆) amounted to 3.4 ± 0.2.

As to FGKLAFPTRLGQGYRKV [YJL039C/NUP192], the protein stability index was 2.98 ± 0.18 (doa10∆), 1.7 ± 0.1 (pdr5∆), 1.54 ± 0.18 (san1∆) and 1.62 ± 0.077 (ubr1∆).

In the case of FGLGYGDVGKNHITEFP [RPC31], the protein stability index is, setting by setting: (doa10∆) 3.17 ± 0.11; (pdr5∆) 3.22 ± 0.11; (san1∆) 3.38 ± 0.12; (ubr1∆) 3.56 ± 0.12.
